In patent US20240069021A1 (ASAHI KASEI, published 2024):

T1: ribosomal protein L7/L12 of Bacillus subtilis (BS), recombinant tagged fusion protein (Bacillus subtilis, UniProt P02394 1-123)
T1 sequence: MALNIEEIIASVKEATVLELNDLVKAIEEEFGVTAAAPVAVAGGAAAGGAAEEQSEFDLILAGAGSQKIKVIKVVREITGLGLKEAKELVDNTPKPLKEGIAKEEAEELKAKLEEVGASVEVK

T2: ribosomal protein L7/L12 of Pseudomonas aeruginosa (PA), recombinant tagged fusion protein (Pseudomonas aeruginosa, UniProt Q9HWC8 1-122)
T2 sequence: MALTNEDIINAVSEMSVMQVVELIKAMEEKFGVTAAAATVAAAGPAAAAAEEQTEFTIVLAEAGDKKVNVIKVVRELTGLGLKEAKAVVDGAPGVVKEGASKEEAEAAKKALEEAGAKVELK

B1: Generic Antibody B (LP54A3) (antibody, V domains shown)
VH: EVQLQQSGAELVKPGASVRLSCSASGFNIKDTYMHWMRQRPEQGLEWIGRIDPANGNAKYDPKFQVKATITADTSSNTASLQFSSLTSEDTAVYFCASESLDDMYYFDYWGQGTTLTVSS
VL: DIVMTQSQKFMSTSVGDRVSVTCKASQNVGVNVAWYQQKPGQSPKALIYSASYRYSGVPDRFTGSGSGTDFTLTISNVQSEDLAEYFCQQYHSYLYTFGGGTKLEIK
B2: Generic Antibody C (CP141A190.1) (antibody, V domains shown)
VH: QVQLQQPGAELVKPGASVKLSCKTSGYNFTSNWIHWVKQRPGQGLEWIGEINPSNGRANYNEKFKNKATLTVDKSSSTAFMHLSSLTSEDSAVYFCSRGDFDEGFTYWGQGTLVTVSA
VL: QIVLTQSPAIMSASLGERVTMTCTASSNVNSDYLHWYQQKPGSSPRLWIYTTSNLASGVPTRFSGNGSGTSYSLTISSMEAEDAATYYCHQYHRSPRTFGGGTKLEIK
B3: Generic Antibody A (PA51B2) (antibody, V domains shown)
VH: QVQLQQPGSVLVRPGASVKLSCKPSGYTFTGSWMHWTKQRPGQGLEWIGEIHPYSGNTNYNEKFRVKATLTVDTSSSTTYVDLSSLTSDDSAVYYCASGDFDAGFTYWGQGTLVTVSA
VL: DIVLTQSPASLAVSLGRRATISCKASQSVDYDGDSYMNWYQQKPGQPPKLLIYVASNLESGIPARFSGSGSGTDFTLNIHPVEEEDAATYYCQQTNEDPFTFGAGTKLELK
B4: Specific Antibody D (EC50C1) (antibody, V domains shown)
VH: QVQLQQSGAELAKPGASVKMSCKASGYTFTSYWMNWVKQRPGQGLEWIGYINPNTGYTEYDQKFKDKATLTADKSSSTAYMQLSSLTSEDSAVYYCARYWAYFEYWGQGTTLTVSS
VL: DIKMTQSPSSMYASLGERVTITCKASQDINSYLSWFQQKPGKSPKTLIYRANRLVDGVPSRFSGSGSGQDYSLTISSLEYEDMGIYYCLQYDEFRTFGGGTKLEIK
B5: Specific Antibody A (HI142D11.3) (antibody, V domains shown)
VH: EVQLQQSGAELVKPGASVKLSCTASGFNIKDTYIHWVKQRPEQGLEWIGRIDPANGNTKYDPKFQGKATITADTSSNTAYLQLSSLTSEDTAVYYCPRPYGYVGWYFDVWGAGTTVTVSS
VL: DIVMTQSHKFMSTSVGDRVSITCKASQDVRNAVAWYQQKPGQSPKLLISSASYRYSGVPDRFTGSGSGTDFTFTISSVQAEDLAVYYCQQHYDTPPTFGGGTKLEIK

Tests used:
[1] = target: T1, ribosomal protein L7/L12 of Bacillus …; experiment: ELISA on coated recombinant L7/L12, antibody 10 ug/mL
[2] = target: T3, ribosomal protein L7/L12 of Escherichia coli (EC), recombinant tagged fusion protein (Escherichia coli, UniProt P0A7K2 1-121); experiment: as above
[3] = target: T2, ribosomal protein L7/L12 of Pseudomonas …; experiment: as above
[4] = target: ribosomal protein L7/L12 of Serratia liquefaciens (SL), recombinant tagged fusion protein (Serratia liquefaciens); experiment: as above
[5] = target: ribosomal protein L7/L12 of Salmonella enterica (SE), recombinant tagged fusion protein (Salmonella enterica); experiment: as above
[6] = target: ribosomal protein L7/L12 of Klebsiella pneumoniae (KP), recombinant tagged fusion protein (Klebsiella pneumoniae); experiment: as above
[7] = target: ribosomal protein L7/L12 of Citrobacter freundii (CF), recombinant tagged fusion protein (Citrobacter freundii); experiment: as above
[8] = target: ribosomal protein L7/L12 of Enterobacter cloacae (ECL), recombinant tagged fusion protein (Enterobacter cloacae); experiment: as above
[9] = target: ribosomal protein L7/L12 of Listeria monocytogenes (LM), recombinant tagged fusion protein (Listeria monocytogenes); experiment: as above
[10] = target: ribosomal protein L7/L12 of Staphylococcus aureus (SA), recombinant tagged fusion protein (Staphylococcus aureus); experiment: as above
[11] = target: ribosomal protein L7/L12 of Rahnella aquatilis (RA), recombinant tagged fusion protein (Rahnella aquatilis); experiment: as above
[12] = target: T3, ribosomal protein L7/L12 of Escherichia …; experiment: ELISA on coated recombinant L7/L12 (10 ng/mL), antibody 10 ug/mL, A450; + means absorbance >= 0.3

Row | Binder | absorbance (450 nm) [1] | absorbance (450 nm) [2] | absorbance (450 nm) [3] | absorbance (450 nm) [4] | absorbance (450 nm) [5] | absorbance (450 nm) [6] | absorbance (450 nm) [7] | absorbance (450 nm) [8] | absorbance (450 nm) [9] | absorbance (450 nm) [10] | absorbance (450 nm) [11] | binding result [12]
1 | B1 | ≥ 0.3 | ≥ 0.3 | ≥ 0.3 |  |  |  |  |  |  |  |  | 
2 | B2 | ≥ 0.3 | ≥ 0.3 | ≥ 0.3 | ≥ 0.3 | ≥ 0.3 | ≥ 0.3 | ≥ 0.3 | ≥ 0.3 | ≥ 0.3 | ≥ 0.3 | ≥ 0.3 | 
3 | B3 | ≥ 0.3 | ≥ 0.3 | ≥ 0.3 | ≥ 0.3 | ≥ 0.3 | ≥ 0.3 | ≥ 0.3 | ≥ 0.3 | ≥ 0.3 | ≥ 0.3 | ≥ 0.3 | 
4 | B4 |  |  |  |  |  |  |  |  |  |  |  | binds
5 | B5 |  |  |  |  |  |  |  |  |  |  |  | binds
